Source: patent US20240033331A1, “REDUCING IMMUNOGENICITY TO PEGLOTICASE” (Horizon Therapeutics USA, Inc., priority 2019, published 2024)
Like-named read-outs stand apart in the source and are kept apart here.

Tests used:
[1] = system: lupus nephritis patients; details: in vivo; cited from earlier work
[2] = human, in vivo; cited from earlier work
[3] = system: serum proteins; details: cited from earlier work
[4] = system: rats; details: cited from earlier work
[5] = system: rabbits; details: cited from earlier work
[6] = KXX exposure (AUC) by patient weight and age; format: in vivo, human
Text: In some embodiments, heavier and/or younger patients may have a higher incidence of anti-KXX antibodies, or may have higher anti-KXX drug titers, than lighter and/or older patients. In other embodiments, lighter and/or older patients may have higher drug loading of KXX than heavier and/or younger patients. In some embodiments, lighter patients may have higher exposures of KXX than heavier patients. For example, in some embodiments, lighter patients may have greater than 2-fold exposure to KXX than heavier patients. In some embodiments, lower drug levels in a patient may result in anti-KXX antibodies. […] In other embodiments, older patients may have higher exposures of KXX than younger patients. For example, in some embodiments, older patients may have greater than 2-fold exposure to KXX than younger patients. […] Thus, in some embodiments, additional 8-mg doses of KXX may be beneficial for younger and/or heavier patients. In other embodiments, younger and/or heavier patients may benefit from one or more loading doses of 16 mg of KXX.

[7] = system: hyperuricemic patients (SUA >8 mg/dL) with symptomatic gout; details: cited from earlier work; for incidence of infusion-related reactions: pegloticase 8 mg
[8] = system: patients receiving pegloticase; details: cited from earlier work; for patients maintaining a response to pegloticase: another study
[9] = system: patients; details: bi-weekly or every 4 weeks for up to 30 months; 149 patients; cited from earlier work
[10] = system: patients treated with pegloticase; details: cited from earlier work
[11] = system: subjects with refractory gout; details: doses of 4 to 12 mg; from 11.1±0.6 mg/dL before; cited from earlier work
[12] = diluted in infusion bags, cited from earlier work
[13] = system: patients treated with allopurinol; details: cited from earlier work

rituximab: biologic given with MMF and glucocorticoids in a lupus nephritis trial
rate of serious infections [1]: 16.6 /100 patient-years

COc1c(C)c2c(c(O)c1C/C=C(\C)CCC(=O)OCCN1CCOCC1)C(=O)OC2 [MMF, 2-morpholinoethyl (E)-6-(1,3-dihydro4-hydroxy-6-methoxy-7-methyl-3-oxo-5-isobenzofuranyl)-4-methyl-4-hexenoate]
time after which not detectable in urine [2]: 8 h | bound to serum proteins [3]: 30% | teratogenicity [4]: teratogenic effects | teratogenicity [5]: teratogenic effects

Sc1ncnc2nc[nH]c12 [mercaptopurine, 6-mercaptopurine]
time after which not detectable in urine [2]: 8 h | bound to serum proteins [3]: 30%

pegloticase
mean area under the curve (AUC) ([6]; heavier patients): about 4.04 mg/L | exposure, lighter versus heavier patients ([6]; human, in vivo): greater than 2 fold | exposure, older versus younger patients ([6]; human, in vivo): greater than 2 fold | mean area under the curve (AUC) ([6]; lighter patients): about 8.92 mg/L | mean area AUC ([6]; older patients): about 8.86 mg/L | mean area AUC ([6]; younger patients): about 3.93 mg/L | patients with IRs in whom loss of response (return to SUA >6 mg/dL) preceded the first IR ([7]; 20/21 patients): 95% | incidence of infusion-related reactions ([7]; biweekly dosing): 26% | incidence of infusion-related reactions ([7]; every-4-week dosing regimen): 40% | patients with titers exceeding 1:2430 who developed IRs ([8]; 31 of 52 patients): 60% | patients maintaining a response to pegloticase ([8]; antibody titer exceeding 1:2430 at any time, 7 of 65): 10.8% | patients maintaining a response to pegloticase ([8]; never had an antibody titer above 1:2430, 58/65): 89.2% | patients who developed high titer anti-pegloticase antibodies and subsequently lost response ([8]; one study, 69 of 169 patients): 41% | long-term safety [9]: No new safety signals were observed | other uncommon symptoms, share of patients ([10]; ecchymoses, sore throat, constipation, chest pain, vomiting): at least 5% | most common adverse reactions, share of treated patients ([10]; gout flares, infusion reactions, nausea, contusion or ecchymosis, nasopharyngitis, constipation, chest pain, anaphylaxis, vomiting): ≥ 5% | anaphylaxis, frequency ([10]; human, in vivo): 6.5% | infusion reactions, share of patients ([10]; pegloticase 8 mg every 2 weeks): 26% | pUAc after dosing, mean±SD [11]: 1.0±0.5 mg/dL | time stable after dilution ([12]; 2° C. to 8° C.): 4 h | time stable after dilution ([12]; room temperature (20° C. to 25° C.)): 4 h

Oc1ncnc2[nH]ncc12 [allopurinol]
patients developing allergic reactions [13]: Approximately 2% | severe hypersensitivity syndrome [13]: about 0.4%
